Assay results reported in patent US20180125988A1, “TARGETED XTEN CONJUGATE COMPOSITIONS AND METHODS OF MAKING SAME” (AMUNIX OPERATING INC., priority 2014, published 2018).

T1: human neutrophil elastase (Homo sapiens, UniProt P08246)
T1 construct: purchased R&D Systems
T1 sequence (P08246 30-267): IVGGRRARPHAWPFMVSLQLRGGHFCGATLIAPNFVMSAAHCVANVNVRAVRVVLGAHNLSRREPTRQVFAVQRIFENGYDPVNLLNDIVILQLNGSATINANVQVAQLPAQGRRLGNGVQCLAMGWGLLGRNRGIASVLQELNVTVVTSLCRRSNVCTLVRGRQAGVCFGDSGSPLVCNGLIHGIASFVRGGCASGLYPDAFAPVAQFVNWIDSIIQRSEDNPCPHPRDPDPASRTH

B1: AC404: fusion protein of FVII with AE864 (protein)
chain: AVFVTQEEAHGVLHRRRRANAFLEELRPGSLERECKEEQCSFEEAREIFKDAERTKLFWISYSDGDQCASSPCQNGGSCKDQLQSYICFCLPAFEGRNCETHKDDQLICVNENGGCEQYCSDHTGTKRSCRCHEGYSLLADGVSCTPTVEYPCGKIPILEKRNASKPQGRIVGGKVCPKGECPWQVLLLVNGAQLCGGTLINTIWVVSAAHCFDKIKNWRNLIAVLGEHDLSEHDGDEQSRRVAQVIIPSTYVPGTTNHDIALLRLHQPVVLTDHVVPLCLPERTFSERTLAFVRFSLVSGWGQLLDRGATALELMVLNVPRLMTQDCLQQSRKVGDSPNITEYMFCAGYSDGSKDSCKGDSGGPHATHYRGTWYLTGIVSWGQGCATVGHFGVYTRVSQYIEWLQKLMRSEPRPGVLLRAPFPGSPGSPAGSPTSTEEGTSESATPESGPGTSTEPSEGSAPGSPAGSPTSTEEGTSTEPSEGSAPGTSTEPSEGSAPGTSESATPESGPGSEPATSGSETPGSEPATSGSETPGSPAGSPTSTEEGTSESATPESGPGTSTEPSEGSAPGTSTEPSEGSAPGSPAGSPTSTEEGTSTEPSEGSAPGTSTEPSEGSAPGTSESATPESGPGTSTEPSEGSAPGTSESATPESGPGSEPATSGSETPGTSTEPSEGSAPGTSTEPSEGSAPGTSESATPESGPGTSESATPESGPGSPAGSPTSTEEGTSESATPESGPGSEPATSGSETPGTSESATPESGPGTSTEPSEGSAPGTSTEPSEGSAPGTSTEPSEGSAPGTSTEPSEGSAPGTSTEPSEGSAPGTSTEPSEGSAPGSPAGSPTSTEEGTSTEPSEGSAPGTSESATPESGPGSEPATSGSETPGTSESATPESGPGSEPATSGSETPGTSESATPESGPGTSTEPSEGSAPGTSESATPESGPGSPAGSPTSTEEGSPAGSPTSTEEGSPAGSPTSTEEGTSESATPESGPGTSTEPSEGSAPGTSESATPESGPGSEPATSGSETPGTSESATPESGPGSEPATSGSETPGTSESATPESGPGTSTEPSEGSAPGSPAGSPTSTEEGTSESATPESGPGSEPATSGSETPGTSESATPESGPGSPAGSPTSTEEGSPAGSPTSTEEGTSTEPSEGSAPGTSESATPESGPGTSESATPESGPGTSESATPESGPGSEPATSGSETPGSEPATSGSETPGSPAGSPTSTEEGTSTEPSEGSAPGTSTEPSEGSAPGSEPATSGSETPGTSESATPESGPGTSTEPSEGSAPGSSS
B2: XTEN_AE864: extended recombinant polypeptide of 864 amino acids, AE motif family (protein)
chain: GSPAGSPTSTEEGTSESATPESGPGTSTEPSEGSAPGSPAGSPTSTEEGTSTEPSEGSAPGTSTEPSEGSAPGTSESATPESGPGSEPATSGSETPGSEPATSGSETPGSPAGSPTSTEEGTSESATPESGPGTSTEPSEGSAPGTSTEPSEGSAPGSPAGSPTSTEEGTSTEPSEGSAPGTSTEPSEGSAPGTSESATPESGPGTSTEPSEGSAPGTSESATPESGPGSEPATSGSETPGTSTEPSEGSAPGTSTEPSEGSAPGTSESATPESGPGTSESATPESGPGSPAGSPTSTEEGTSESATPESGPGSEPATSGSETPGTSESATPESGPGTSTEPSEGSAPGTSTEPSEGSAPGTSTEPSEGSAPGTSTEPSEGSAPGTSTEPSEGSAPGTSTEPSEGSAPGSPAGSPTSTEEGTSTEPSEGSAPGTSESATPESGPGSEPATSGSETPGTSESATPESGPGSEPATSGSETPGTSESATPESGPGTSTEPSEGSAPGTSESATPESGPGSPAGSPTSTEEGSPAGSPTSTEEGSPAGSPTSTEEGTSESATPESGPGTSTEPSEGSAPGTSESATPESGPGSEPATSGSETPGTSESATPESGPGSEPATSGSETPGTSESATPESGPGTSTEPSEGSAPGSPAGSPTSTEEGTSESATPESGPGSEPATSGSETPGTSESATPESGPGSPAGSPTSTEEGSPAGSPTSTEEGTSTEPSEGSAPGTSESATPESGPGTSESATPESGPGTSESATPESGPGSEPATSGSETPGSEPATSGSETPGSPAGSPTSTEEGTSTEPSEGSAPGTSTEPSEGSAPGSEPATSGSETPGTSESATPESGPGTSTEPSEGSAP
modifications: conjugated
notes: extended recombinant polypeptide of 864 amino acids, AE motif family
B3: AC398: fusion protein of FVII with AE288 (protein)
chain: AVFVTQEEAHGVLHRRRRANAFLEELRPGSLERECKEEQCSFEEAREIFKDAERTKLFWISYSDGDQCASSPCQNGGSCKDQLQSYICFCLPAFEGRNCETHKDDQLICVNENGGCEQYCSDHTGTKRSCRCHEGYSLLADGVSCTPTVEYPCGKIPILEKRNASKPQGRIVGGKVCPKGECPWQVLLLVNGAQLCGGTLINTIWVVSAAHCFDKIKNWRNLIAVLGEHDLSEHDGDEQSRRVAQVIIPSTYVPGTTNHDIALLRLHQPVVLTDHVVPLCLPERTFSERTLAFVRFSLVSGWGQLLDRGATALELMVLNVPRLMTQDCLQQSRKVGDSPNITEYMFCAGYSDGSKDSCKGDSGGPHATHYRGTWYLTGIVSWGQGCATVGHFGVYTRVSQYIEWLQKLMRSEPRPGVLLRAPFPGSPGTSESATPESGPGSEPATSGSETPGTSESATPESGPGSEPATSGSETPGTSESATPESGPGTSTEPSEGSAPGSPAGSPTSTEEGTSESATPESGPGSEPATSGSETPGTSESATPESGPGSPAGSPTSTEEGSPAGSPTSTEEGTSTEPSEGSAPGTSESATPESGPGTSESATPESGPGTSESATPESGPGSEPATSGSETPGSEPATSGSETPGSPAGSPTSTEEGTSTEPSEGSAPGTSTEPSEGSAPGSEPATSGSETPGTSESATPESGPGTSTEPSEGSAPGSSS
B4: XTEN_AG864: extended recombinant polypeptide of 864 amino acids, AG motif family (protein)
chain: GASPGTSSTGSPGSSPSASTGTGPGSSPSASTGTGPGTPGSGTASSSPGSSTPSGATGSPGSSPSASTGTGPGASPGTSSTGSPGTPGSGTASSSPGSSTPSGATGSPGTPGSGTASSSPGASPGTSSTGSPGASPGTSSTGSPGTPGSGTASSSPGSSTPSGATGSPGASPGTSSTGSPGTPGSGTASSSPGSSTPSGATGSPGSSPSASTGTGPGSSPSASTGTGPGSSTPSGATGSPGSSTPSGATGSPGASPGTSSTGSPGASPGTSSTGSPGASPGTSSTGSPGTPGSGTASSSPGASPGTSSTGSPGASPGTSSTGSPGASPGTSSTGSPGSSPSASTGTGPGTPGSGTASSSPGASPGTSSTGSPGASPGTSSTGSPGASPGTSSTGSPGSSTPSGATGSPGSSTPSGATGSPGASPGTSSTGSPGTPGSGTASSSPGSSTPSGATGSPGSSTPSGATGSPGSSTPSGATGSPGSSPSASTGTGPGASPGTSSTGSPGASPGTSSTGSPGTPGSGTASSSPGASPGTSSTGSPGASPGTSSTGSPGASPGTSSTGSPGASPGTSSTGSPGTPGSGTASSSPGSSTPSGATGSPGTPGSGTASSSPGSSTPSGATGSPGTPGSGTASSSPGSSTPSGATGSPGSSTPSGATGSPGSSPSASTGTGPGSSPSASTGTGPGASPGTSSTGSPGTPGSGTASSSPGSSTPSGATGSPGSSPSASTGTGPGSSPSASTGTGPGASPGTSSTGSPGASPGTSSTGSPGSSTPSGATGSPGSSPSASTGTGPGASPGTSSTGSPGSSPSASTGTGPGTPGSGTASSSPGSSTPSGATGSPGSSTPSGATGSPGASPGTSSTGSP
modifications: conjugated
notes: extended recombinant polypeptide of 864 amino acids, AG motif family

Columns and labels:
[1] = Analytical size exclusion chromatography of XTEN fusion proteins; format: physicochemical; details: for RH (nm), hydrodynamic radius / Apparent MW (kDa): SEC; for Apparent MW (kDa): BioRad calibration standard; for Apparent Molecular Weight Factor: ratio of apparent molecular weight to calculated molecular weight
[2] = Biodegradation of XTEN in rat plasma, rat kidney homogenate and PBS buffer (SDS-PAGE); format: in vitro ADME; details: 0.3 mg/ml
Method: Purified XTEN_AE864 protein was incubated at a final concentration of 0.3 mg/ml in rat plasma (Bioreclamation IVT, Baltimore, Md.), rat kidney homogenate (Bioreclamation), or PBS buffer for up to 7 days at 37° C. Samples were withdrawn at time 0, 4 hours, 24 hours, and 7 days, were immediately frozen and stored at -80° C., then thawed right before analysis. XTEN was extracted from the samples by methanol precipitation. Briefly, methanol pre-chilled at −20° C. was added to the samples at a volume ratio of 2:1 and mixed by vortex. The mixture was kept at −20° C. for 30 min and then centrifuged at 14,000 rpm for 20 min at 8° C. The supernatant was subjected to centrifugal evaporation for 1-2 hours to take the sample to complete dryness, and was then resuspended in PBS buffer to the original volume before methanol extraction. The reconstituted samples were analyzed by SDS-PAGE with staining using Stains-all.

[3] = biological target: T1, human neutrophil elastase; assay: Neutrophil elastase digestion of XTEN_AE864 (SDS-PAGE); format: biochemical; details: 10 μM XTEN, 37° C., 2 hours
Method: It had been speculated that neutrophil elastase, a serine protease with broad substrate specificity, may be able to degrade XTEN. […] 10 μM of purified XTEN_AE864 was incubated with 1:1000 or 1:100 molar ratio (elastase:XTEN) of human neutrophil elastase (R&D Systems) at 37° C. for 2 hours. Samples before and after digestion were analyzed on SDS-PAGE gel followed with coomassie staining (FIG. 86).

[4] = Half-life of XTEN_AG864 in cynomolgus monkeys; format: in vivo
Excerpt: The methods and materials utilized were adapted from those of Example 1, above.

Molecule | RH (nm), hydrodynamic radius [1] | Apparent MW (kDa) [1] | Apparent Molecular Weight Factor [1] | also measured
B1 | 10.1 nm | 1900 kDa | 14.7 | 
B2 |  |  |  | degradation in PBS buffer ([2]; PBS buffer, 7 day incubation at 37° C.): only minor signs of degradation; degradation in rat kidney homogenate ([2]; rat kidney homogenate, 37° C., by the 24 hour interval): rapidly degraded; degradation in rat plasma ([2]; rat plasma, 7 day incubation at 37° C.): only minor signs of degradation; degradation by neutrophil elastase ([3]; 1:100 molar ratio (elastase:XTEN)): completely digested; degradation by neutrophil elastase ([3]; 1:1000 molar ratio (elastase:XTEN)): Partial degradation
B3 | 8.2 nm | 650 kDa | 8.5 | 
B4 |  |  |  | half-life [4]: exceeding 60 h
